The results in this text go back to paper PMC11828469 (2025).

To fix the notation:
B1: GST–Rabin8-WT [human] / 6His–Rab11a [not stated] (parent complex)
chain 1: MANDPLEGFHEVNLASPTSPDLLGVYESGTQEQTTSPSVIYRPHPSALSSVPIQANALDVSELPTQPVYSSPRRLNCAEISSISFHVTDPAPCSTSGVTAGLTKLTTRKDNYNAEREFLQGATITEACDGSDDIFGLSTDSLSRLRSPSVLEVREKGYERLKEELAKAQRELKLKDEECERLSKVRDQLGQELEELTASLFEEAHKMVREANIKQATAEKQLKEAQGKIDVLQAEVAALKTLVLSSSPTSPTQEPLPGGKTPFKKGHTRNKSTSSAMSGSHQDLSVIQPIVKDCKEADLSLYNEFRLWKDEPTMDRTCPFLDKIYQEDIFPCLTFSKSELASAVLEAVENNTLSIEPVGLQPIRFVKASAVECGGPKKCALTGQSKSCKHRIKLGDSSNYYYISPFCRYRITSVCNFFTYIRYIQQGLVKQQDVDQMFWEVMQLRKEMSLAKLGYFKEEL
chain 2: MGTRDDEYDYLFKVVLIGDSGVGKSNLLSRFTRNEFNLESKSTIGVEFATRSIQVDGKTIKAQIWDTAGQERYRAITSAYYRGAVGALLVYDIAKHLTYENVERWLKELRDHADSNIVIMLVGNKSDLRHLRAVPTDEARAFAEKNGLSFIETSALDSTNVEAAFQTILTEIYRIVSQKQMSDRRENDMSPSNNVVPIHVPPTTENKPKVQCCQNI
B2: GST–Rabin8-WT [human] / 6His–Rab8a [not stated] (parent complex)
chain 1: B1 chain 1
chain 2: MAKTYDYLFKLLLIGDSGVGKTCVLFRFSEDAFNSTFISTIGIDFKIRTIELDGKRIKLQIWDTAGQERFRTITTAYYRGAMGIMLVYDITNEKSFDNIRNWIRNIEEHASADVEKMILGNKCDVNDKRQVSKERGEKLALDYGIKFMETSAKANINVENAFFTLARDIKAKMDKKLEGNSPQGSNQGVKITPDQQKRSSFFRCVLL

Variants of B1 are the subject of the first assay. Briefly: GST pull-down, immunoblot quantified with Image Lab 6.1; purified Rab11 in the presence of GTPγS; n=3; parent: 8.5; read off a plot.
chain 1 F201A: the response was about 9.
For the variant chain 1 E192A, the response was about 9.5.

Variants of B1 are the subject of the next assay. As to the kind of experiment: GST pull-down, immunoblot quantified with Image Lab 6.1; purified Rab11 in the presence of GTPγS; n=3; P=0.0012 vs WT; parent: 8.5; read off a plot. (In western blotting, separated proteins are transferred to a membrane and probed.)
With chain 1 T419A, chain 1 Y423A, chain 1 L428A, the response is about 2.5.

The variants in a further assay derive from B2. Briefly: GST pull-down, immunoblot quantified with Image Lab 6.1; purified Rab8 in the presence of GDPβS; n=3; parent: 4.5; read off a plot.
chain 1 E192A: the response was about 4.5.
On the same count and under the same terms, for chain 1 F201A the value was about 4.5; for chain 1 T419A, chain 1 Y423A, chain 1 L428A, about 4.5.
